Measured values from patent US20170166644A1 (SORRENTO THERAPEUTICS, published 2017).

B1: VB-E1 (antibody, V domains shown)
VH: QVQLVESGAEVKKPGASVKVSCKASGYTFTNYYIHWVRQAPGQGLEWMGIINPSSGSTNYAQKFQGRVTMTRDTSTSTVYMELSSLRSEDTAVYYCARQRWDLLDDAFDIWGQGTMVTVSS
VL: DIVMTQSPDSLAVSLGERATINCKTSQSVLYNANNKNYLNWYQQKPGQPPKLLIYWASARESGVPDRFSGSGSGTDFTLTIRSLQPDDFATYYCQQAISFPLTFGGGTKVEIK
B2: VB-A3 (antibody, V domains shown)
VH: QVQLVQSGAEVKKPGASVKVSCKASGHTFNYYYMHWVRQAPGQGLEWMGQTNLNSGGTNYAPKFQGRVTMTRDTSISTAYMELSSLRSDDTAVYYCANLNSGWFHFENWGQGTLVTVSS
VL: SYELTQPPSVSVAPGKTASITCGGNNIGSKSVHWYQQKPGQAPVLVIYYDRDRPSGIPERFSGSNSGNTATLTISRVEAGDEADYYCQVWDSSSYHPVFGGGTKLTVL
B3: VR-B2 (antibody, V domains shown)
VH: EVQLLESGGGLVQPGGSLRLSCAASGFTFSSYAMHWVRQAPGKGLEWVAVISYDGSNKYYADSVKGRFTISRDNSKNTLYLQMNSLRAEDTAVYYCARDLGAASYWYFDLWGRGTLVTVSS
VL: DIQLTQSPPSVSASVGDRVTITCRASQDISTWLAWYQQKPGSAPKVLIYAASTFQSGVPSRFRGSGSGTYFTLTISGLQPEDFATYYCQQGNSFPPTFGQGTKLEIK
B4: RV-H5 (antibody, V domains shown)
VH: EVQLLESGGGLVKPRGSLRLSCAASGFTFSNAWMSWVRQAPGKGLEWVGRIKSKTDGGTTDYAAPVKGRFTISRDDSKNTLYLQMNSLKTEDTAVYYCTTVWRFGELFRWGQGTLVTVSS
VL: QAGLTQPPSVSVSPGQTASITCSGDKLGDKYISWYQQKPGQSPVMVIFQDTKRPSGIPERFSGSNSGNTATLTISGTQAMDEADYYCQAWDTSTVFGGGTKLTVL
B5: VR-E3 (antibody, V domains shown)
VH: EVQLVESGGGLVKPGGSLRLSCAASGFTFSSYSMNWVRQAPGKGLEWVSSISSASSYIYYADSVKGRFTISRDNAKKSLYLQLNSLTVEDTAVYYCAREYWGSPDYWGRGTLVTVSS
VL: QPVLTQPPSASGSPGQSVTISCTGTSSDVGGYNYVSWYQQHPGKAPKLMIYDVNNRPSGVPDRFSGSKSGNTASLTISGLQAEDEADYYCSSYTSSSTRVFGGGTKLTVL
B6: VB-A9 (antibody, V domains shown)
VH: EVQLVESGGGLVKPGGSLRLSCAASGFTFSSYSMNWVRQAPGKGLEWVSSISSGSSYIYYADSLKGRFTISRDNAKNSLYLQMNSLRAEDTAVYYCARDFGNWGQGTLVTVSS
VL: QSALTQPRSVSASPGQSVTISCTGTSSDVGGYDYVSWYQQHPGKAPKLMIYEVSNRPSGVSNRFSGSKSGNTASLSISGLQAEDEADYYCSSYTSTSSPVVFGGGTKLTVL
B7: VK-B8 (antibody, V domains shown)
VH: QVQLVQSGAEVKKPGSSVKVSCKAYGGTFGSYGVSWVRRAPGQGLEWMGRLIPIFGTRDYAQKFQGRVTLTADESTNTAYMELSSLRSEDTAVYYCARDGDYYGSGSYYGMDVWGQGTLVTVSS
VL: ETTLTQSPATLSVSPGERATVSCRASQSLGSNLGWFQQKPGQAPRLLIYGASTRATGIPARFSGSGSGTEFTLTISSLQSEDFAVYFCQQYNDWPITFGQGTRLEIK
notes: The printed VH starts with MA; also called STI-A0168; anti-VEGFR2 antibody VK-B8
B8: VR-B4 (antibody, V domains shown)
VH: QVQLVQSGAEVKKPGSSVKVSCKAYGGTFGSYGVSWVRRAPGQGLEWMGRLIPIFGTRDYAQKFQGRVTLTADESTNTAYMELSSLRSEDTAVYYCARDGDYYGSGSYYGMDVWGQGTTVTVSS
VL: SYELTQPASVSGSPGQSITISCTGSSSDVGGYNFVSWYRQHAGKAPKLMIYDVTNRPSGVSTRFSGSKSGTTASLTISGLQPDDEAHYYCSSYTTTSTWVFGGGTKLTVL

How the values were obtained:
VEGFR2 [1] = molecular target: T1, VEGFR2; test: EC50 measurement, summary table; assay not stated
T1 construct: also called KDR
T1 sequence (P35968 20-764): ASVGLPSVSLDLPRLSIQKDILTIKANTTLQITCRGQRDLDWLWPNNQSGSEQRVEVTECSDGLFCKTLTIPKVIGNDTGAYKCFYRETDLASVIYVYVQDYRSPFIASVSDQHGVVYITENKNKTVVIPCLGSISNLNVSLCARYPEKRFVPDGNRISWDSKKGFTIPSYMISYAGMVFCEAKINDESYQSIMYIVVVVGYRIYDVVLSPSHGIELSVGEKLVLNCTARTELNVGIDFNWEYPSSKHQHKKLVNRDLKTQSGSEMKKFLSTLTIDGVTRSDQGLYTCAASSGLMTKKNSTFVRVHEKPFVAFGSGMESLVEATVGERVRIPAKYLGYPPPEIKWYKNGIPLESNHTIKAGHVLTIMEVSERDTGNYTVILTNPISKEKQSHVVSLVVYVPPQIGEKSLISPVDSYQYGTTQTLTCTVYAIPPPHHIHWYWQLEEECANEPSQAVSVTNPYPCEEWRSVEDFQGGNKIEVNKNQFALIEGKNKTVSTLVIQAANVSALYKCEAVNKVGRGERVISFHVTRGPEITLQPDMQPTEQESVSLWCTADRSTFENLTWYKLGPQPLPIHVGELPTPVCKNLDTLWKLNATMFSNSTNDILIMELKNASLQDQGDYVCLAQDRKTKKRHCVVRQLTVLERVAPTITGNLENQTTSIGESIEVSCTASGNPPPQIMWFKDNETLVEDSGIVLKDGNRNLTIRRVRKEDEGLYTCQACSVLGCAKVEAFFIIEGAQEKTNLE

VEGFR2 [2] = molecular target: T1, VEGFR2; test: Biacore
VEGFR2 [3] = molecular target: T1, VEGFR2; test: IC50 measurement, summary table; assay not stated
VEGFR2 on HUVECs [4] = molecular target: T2, VEGFR2 on HUVECs (human, UniProt P35968 20-1356); test: cell-based or functional assay
soluble VEGFR2-Fc [5] = test: blocking of VEGF binding to soluble VEGFR2-Fc (FIG. 2)
VEGFR2 on HUVECs [6] = molecular target: T2, VEGFR2 on HUVECs; test: cell binding to HUVE cells, flow cytometry (FIG. 3 legend); FIG. 3 legend, unrounded value
Experimental: (§1) This example illustrates in vitro data for VK-B8 cellular EC₅₀ measurements. Protocol: 50,000 HUVECs were aliquoted into the wells of a 96-well, v-bottom plate in 100 ul FACS Buffer (PBS+2% FBS). A twelve point, 3× dilution curve of VK-B8 was made in FACS Buffer starting at 50 μg/ml (3.33×10⁻⁷ M). Cells were spun down, washed 1× with FACS Buffer, and then resuspended in 25 μl of antibody solution in triplicate. […] Cells were further incubated for 0.5 hr. and then washed 1× with FACS Buffer. Cells were resuspended in 25 μl FACS Buffer and the median fluorescence intensity in the FL2-H channel was determined using the Intellicyt HTFC flow cytometer.
(§2) Results: The cell binding EC₅₀ for VK-B8 on HUVECs was determined to be 1.3 nM. Data was analyzed and plotted in Graph Pad Prizm using non-linear regression fit. Data points are shown (FIG. 4) as the median fluorescence intensity (MFI) of positively labeled cells +/− Std Error.

VEGFR2 on HUVECs [7] = molecular target: T2, VEGFR2 on HUVECs; test: flow cytometry on HUVECs, MFI against antibody concentration, non-linear fit (Example 6); unit taken from the axis label 'Antibody Conc (M)', log scale
Experimental: as §1, §2

soluble VEGFR2-Fc [8] = test: blocking of VEGF binding to soluble VEGFR2-Fc, VK-B8 titrated, readout OD 450; plate format not described; unit taken from the axis label 'VK-B8 [log M]'

T2 sequence (P35968 20-1356): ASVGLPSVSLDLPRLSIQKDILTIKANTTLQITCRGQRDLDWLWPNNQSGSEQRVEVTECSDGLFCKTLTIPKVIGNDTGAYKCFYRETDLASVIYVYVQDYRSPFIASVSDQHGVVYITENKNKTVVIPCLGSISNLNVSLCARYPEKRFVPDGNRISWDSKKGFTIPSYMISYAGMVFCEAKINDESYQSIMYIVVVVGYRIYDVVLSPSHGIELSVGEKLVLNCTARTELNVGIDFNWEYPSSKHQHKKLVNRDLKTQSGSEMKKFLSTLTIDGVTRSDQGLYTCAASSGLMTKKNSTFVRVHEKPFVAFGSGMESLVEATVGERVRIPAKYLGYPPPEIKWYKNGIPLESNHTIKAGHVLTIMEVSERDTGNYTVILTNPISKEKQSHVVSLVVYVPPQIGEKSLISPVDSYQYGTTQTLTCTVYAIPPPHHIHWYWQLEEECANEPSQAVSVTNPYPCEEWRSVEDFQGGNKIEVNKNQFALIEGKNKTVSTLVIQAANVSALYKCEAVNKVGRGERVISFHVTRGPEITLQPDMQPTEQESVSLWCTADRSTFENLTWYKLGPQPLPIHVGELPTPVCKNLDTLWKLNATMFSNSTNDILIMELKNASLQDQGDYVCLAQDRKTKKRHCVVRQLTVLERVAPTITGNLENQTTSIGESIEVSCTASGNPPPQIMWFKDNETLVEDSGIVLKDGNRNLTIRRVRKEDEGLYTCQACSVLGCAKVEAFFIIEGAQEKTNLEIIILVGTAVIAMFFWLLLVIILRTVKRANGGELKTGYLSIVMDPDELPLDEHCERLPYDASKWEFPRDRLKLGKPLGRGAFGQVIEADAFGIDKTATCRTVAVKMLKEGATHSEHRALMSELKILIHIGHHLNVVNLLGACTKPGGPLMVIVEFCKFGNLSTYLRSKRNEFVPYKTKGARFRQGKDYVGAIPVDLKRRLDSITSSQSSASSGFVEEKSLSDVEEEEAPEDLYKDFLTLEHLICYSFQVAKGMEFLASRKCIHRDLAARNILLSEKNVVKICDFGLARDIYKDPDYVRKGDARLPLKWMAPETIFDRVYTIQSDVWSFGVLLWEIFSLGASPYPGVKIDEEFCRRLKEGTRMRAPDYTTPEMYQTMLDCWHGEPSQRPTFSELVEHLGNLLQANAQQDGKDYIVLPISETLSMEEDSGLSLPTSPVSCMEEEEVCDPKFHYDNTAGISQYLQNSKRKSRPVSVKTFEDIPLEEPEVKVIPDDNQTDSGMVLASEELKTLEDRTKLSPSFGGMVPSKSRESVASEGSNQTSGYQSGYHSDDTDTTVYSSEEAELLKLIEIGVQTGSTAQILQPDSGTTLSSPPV
Chain of soluble VEGFR2-Fc (P35968 20-764): as the sequence (P35968 20-764) above

Row | Binder | EC50 (VEGFR2 [1]) [nM] | Kd (VEGFR2 [2]) [nM] | koff (VEGFR2 [2]) [s⁻¹] | kon (VEGFR2 [2]) [M⁻¹ s⁻¹] | IC50 (VEGFR2 [3]) [nM] | also measured
1 | B1 | 0.5 |  |  |  |  | 
2 | B2 |  | 3.09 | 0.012 | 3.88e+06 |  | 
3 | B3 | 0.747 |  |  |  |  | 
4 | B4 | 0.323 | 0.815 | 0.00225 | 2.76e+06 | 5.79 | 
5 | B5 | 1.29 |  |  |  | 9.32 | 
6 | B6 | 0.25 | 3.02 | 0.000496 | 164000 | 2.05 | 
7 | B7 | 0.25 | 0.121 | 8.73e-05 | 724000 | 2.04 | IC50 for VK-B8 inhibition of VEGF-induced p44/p42 MAPK (Erk1/2) phosphorylation in HUVECs, phospho-ELISA (VEGFR2 on HUVECs [4]): 0.08 nM; IC50 value for the inhibition of VEGF-induced HUVEC cell migration by VK-B8 (FIG. 14 legend) (VEGFR2 on HUVECs [4]): 0.53 nM; IC50 value for the inhibition of VEGF-induced HUVEC cell proliferation by VK-B8 (FIG. 13 legend) (VEGFR2 on HUVECs [4]): 14.9 nM; IC50 value for the inhibition of VEGF-induced HUVEC migration by VK-B8 (modified Boyden chamber) (VEGFR2 on HUVECs [4]): 0.5 nM; IC50 value for the inhibition of VEGF-induced HUVEC proliferation by VK-B8 (VEGFR2 on HUVECs [4]): 14 nM; IC50 (soluble VEGFR2-Fc [5]): ~0.77 nM; EC50 (VEGFR2 on HUVECs [6]): ~1.3 nM; EC50 (VEGFR2 on HUVECs [7]): 1.3 nM; IC50 (soluble VEGFR2-Fc [8]): 0.771 nM
8 | B8 | 24.3 |  |  |  |  | 
